# Data published in IntAct's records for PubMed 29039417.
# B1: BBSome-interacting protein 1 (Homo sapiens), A8MTZ0 (parent)
# chain: MLKAAAKRPELSGKNTISNNSDMAEVKSMFREVLPKQGPLFVEDIMTMVLCKPKLLPLKSLTLEKLEKMHQAAQNTIRQQEMAEKDQRQITH
# partner: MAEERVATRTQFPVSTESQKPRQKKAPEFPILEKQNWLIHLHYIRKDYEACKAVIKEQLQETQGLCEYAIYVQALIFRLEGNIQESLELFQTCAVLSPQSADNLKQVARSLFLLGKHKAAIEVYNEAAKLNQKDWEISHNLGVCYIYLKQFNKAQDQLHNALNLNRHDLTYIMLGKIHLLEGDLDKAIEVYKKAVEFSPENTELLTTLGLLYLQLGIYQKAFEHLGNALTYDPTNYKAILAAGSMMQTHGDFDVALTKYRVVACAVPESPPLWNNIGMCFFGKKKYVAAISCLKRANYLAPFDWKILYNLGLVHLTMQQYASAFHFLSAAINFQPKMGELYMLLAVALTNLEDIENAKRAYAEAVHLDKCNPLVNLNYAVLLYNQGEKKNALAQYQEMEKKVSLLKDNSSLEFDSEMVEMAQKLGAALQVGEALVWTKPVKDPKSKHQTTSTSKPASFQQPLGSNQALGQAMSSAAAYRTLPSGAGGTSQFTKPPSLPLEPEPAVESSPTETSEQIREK
# Variants of: B1
# Conditions: with bbs4_human BBS4, Q96RK4
row,Variant,effect of a mutation on the interaction
1,MLKAAAKRPELSGKNTISNNSDMAEVKSMFREVLPKQGPLFVEDIMTMVLCKPKLLPLKSLTLEKLEKMHQAAQNTIRQQEMAEKDQRAITH [Q89A],with no effect
2,MLKAAAKRPELSGKNTISNNSDMAEVKSMFREVLPKQGPLFVEDIMTMVLCKPKLLPLKSLTLEKLEKMHQAAQNTIRQQEMAEKDARQITH [Q87A],with no effect
3,MLKAAAARPELSGKNTISNNSDMAEVKSMFREVLPKQGPLFVEDIMTMVLCKPKLLPLKSLTLEKLEKMHQAAQNTIRQQEMAEKDQRQITH [K7A],with no effect
4,MLKAAAKRPELSGKNTISNNSDMAEVKSMFREVLPKQGPLFVEDIMTMVLCKPKLLPLKSLTLEKLEKMHQAAQATIRQQEMAEKDQRQITH [N75A],with no effect
5,MLKAAAKKPELSGKNTISNNSDMAEVKSMFREVLPKQGPLFVEDIMTMVLCKPKLLPLKSLTLEKLEKMHQAAQNTIRQQEMAEKDQRQITH [R8K],with no effect
6,MLKAAAKRPELSGKNTISNNSDMAEVKKMFREVLPKQGPLFVEDIMTMVLCKPKLLPLKSLTLEKLEKMHQAAQNTIRQQEMAEKDQRQITH [S28K],with no effect
7,MLKAAAKRPEASGKNTISNNSDMAEVKSMFREVLPKQGPLFVEDIMTMVLCKPKLLPLKSLTLEKLEKMHQAAQNTIRQQEMAEKDQRQITH [L11A],with no effect
8,MLKAAAKRPELSGKNTISNNSDMAEVKSMFRAVLPKQGPLFVEDIMTMVLCKPKLLPLKSLTLEKLEKMHQAAQNTIRQQEMAEKDQRQITH [E32A],with no effect
9,MLKAAAKRPELSGKNTISNNSDMAEVKSMFREVLPKQGPLFVEDIMTAVLCKPKLLPLKSLTLEKLEKMHQAAQNTIRQQEMAEKDQRQITH [M48A],with no effect
10,MLKAAAKRPELSGKNTISNNSDMAEVSSMFREVLPKQGPLFVEDIMTMVLCKPKLLPLKSLTLEKLEKMHQAAQNTIRQQEMAEKDQRQITH [K27S],disrupting interaction strength
11,MLKAAAKRPELSGKNTIANNSDMAEVKSMFREVLPKQGPLFVEDIMTMVLCKPKLLPLKSLTLEKLEKMHQAAQNTIRQQEMAEKDQRQITH [S18A],with no effect
12,MLKAAAKRPELSGKNTISNNSDMAEVKSMFREVLPKQGPLFVEDIMTMVLCKPKLLPLKSLTLEKLEKMHQAAQNTIRQQEMAEKDQRQIEH [T91E],with no effect
13,MLKAAAKRPELSGKNTISNNSDMAEVKSMFKEVLPKQGPLFVEDIMTMVLCKPKLLPLKSLTLEKLEKMHQAAQNTIRQQEMAEKDQRQITH [R31K],with no effect
14,MLKAAAKRPKLSGKNTISNNSDMAEVKSMFREVLPKQGPLFVEDIMTMVLCKPKLLPLKSLTLEKLEKMHQAAQNTIRQQEMAEKDQRQITH [E10K],with no effect
15,MLKAAAKRPELEGKNTISNNSDMAEVKSMFREVLPKQGPLFVEDIMTMVLCKPKLLPLKSLTLEKLEKMHQAAQNTIRQQEMAEKDQRQITH [S12E],with no effect
16,MLKAAAKRPELSGKNTISNNSDMAEVKSMFREVLPKQGPLFVEDIMTMVLCKPKLLPLKKLTLEKLEKMHQAAQNTIRQQEMAEKDQRQITH [S60K],with no effect
17,MLKAAAKRPELSGKNTISNNSDMAEVKSMFREVLPKQGPLFVEDIMTMVLCKPKLLPLESLTLEKLEKMHQAAQNTIRQQEMAEKDQRQITH [K59E],with no effect
18,KLKAAAKRPELSGKNTISNNSDMAEVKSMFREVLPKQGPLFVEDIMTMVLCKPKLLPLKSLTLEKLEKMHQAAQNTIRQQEMAEKDQRQITH [M1K],with no effect
19,MLKAAAKRPELSGKNTIKNNSDMAEVKSMFREVLPKQGPLFVEDIMTMVLCKPKLLPLKSLTLEKLEKMHQAAQNTIRQQEMAEKDQRQITH [S18K],with no effect
20,MLKAAAKRPELSGKNTISNESDMAEVKSMFREVLPKQGPLFVEDIMTMVLCKPKLLPLKSLTLEKLEKMHQAAQNTIRQQEMAEKDQRQITH [N20E],with no effect
21,MLKAAAKRPELSGKNTISNNSDMAEVKSMFREVLPKQGPLFVEDIMTMVLCKPKLLPLKSLKLEKLEKMHQAAQNTIRQQEMAEKDQRQITH [T62K],with no effect
22,MLKAAAKRPELSGKNTISNNSDMAEVKSMFREVLPYQGPLFVEDIMTMVLCKPKLLPLKSLTLEKLEKMHQAAQNTIRQQEMAEKDQRQITH [K36Y],disrupting interaction strength
23,MLKAAAKRAELSGKNTISNNSDMAEVKSMFREVLPKQGPLFVEDIMTMVLCKPKLLPLKSLTLEKLEKMHQAAQNTIRQQEMAEKDQRQITH [P9A],with no effect
24,MLKAAAKRPELSGENTISNNSDMAEVKSMFREVLPKQGPLFVEDIMTMVLCKPKLLPLKSLTLEKLEKMHQAAQNTIRQQEMAEKDQRQITH [K14E],with no effect
25,MLKAAAKRPELSGKNKISNNSDMAEVKSMFREVLPKQGPLFVEDIMTMVLCKPKLLPLKSLTLEKLEKMHQAAQNTIRQQEMAEKDQRQITH [T16K],with no effect
26,MLKAAAKRPELSGKNTISNNSDMAEVKSMFREVLPKQGPLFVEDIMTMVLCIPKLLPLKSLTLEKLEKMHQAAQNTIRQQEMAEKDQRQITH [K52I],disrupting interaction strength

row,Variant,effect of a mutation on the interaction
1,MLKAAAKRPELSGKNTISNNSDMAEVKSMFREELPKQGPLFVEDIMTMVLCKPKLLPLKSLTLEKLEKMHQAAQNTIRQQEMAEKDQRQITH [V33E],with no effect
2,MLKAAAKRPELKGKNTISNNSDMAEVKSMFREVLPKQGPLFVEDIMTMVLCKPKLLPLKSLTLEKLEKMHQAAQNTIRQQEMAEKDQRQITH [S12K],with no effect
3,MLKAAAKRPELSGKNTISNKSDMAEVKSMFREVLPKQGPLFVEDIMTMVLCKPKLLPLKSLTLEKLEKMHQAAQNTIRQQEMAEKDQRQITH [N20K],with no effect
4,MLKAAAKRPELSGKNTISNNSDMAEVKSMFREVLPPQGPLFVEDIMTMVLCKPKLLPLKSLTLEKLEKMHQAAQNTIRQQEMAEKDQRQITH [K36P],disrupting interaction strength
5,MLKAAAKRPELSGKNTISNNSDMAEVKSMFREVLPKQGPLFVEDIETMVLCKPKLLPLKSLTLEKLEKMHQAAQNTIRQQEMAEKDQRQITH [M46E],with no effect
6,MLKAAAKRPELSGKNTISNNSDMAEVKSMFREVLPKQGPLFVEDKMTMVLCKPKLLPLKSLTLEKLEKMHQAAQNTIRQQEMAEKDQRQITH [I45K],with no effect
7,MLKAAAKRPELSGKNTISNNSDMAEVKSMFREVLPKQGPLFVEDIMTMVLCKPKLLPLKSLTLEKLEKMHQEAQNTIRQQEMAEKDQRQITH [A72E],with no effect
8,MLKAAAKRPELSGKNTISNNSDMAEVKSMFREVLPKQGPLFVEDIMTMVLCKPKLLPLKSLTLEKEEKMHQAAQNTIRQQEMAEKDQRQITH [L66E],with no effect
9,MLKAAAKRPELSGKNTISNASDMAEVKSMFREVLPKQGPLFVEDIMTMVLCKPKLLPLKSLTLEKLEKMHQAAQNTIRQQEMAEKDQRQITH [N20A],with no effect
10,MLKAAAKRPELSGKNTISNNADMAEVKSMFREVLPKQGPLFVEDIMTMVLCKPKLLPLKSLTLEKLEKMHQAAQNTIRQQEMAEKDQRQITH [S21A],with no effect
11,MLKAAAKRPELAGKNTISNNSDMAEVKSMFREVLPKQGPLFVEDIMTMVLCKPKLLPLKSLTLEKLEKMHQAAQNTIRQQEMAEKDQRQITH [S12A],with no effect
12,MLKAAAKRPELSGKNTISNNSDMAEVKSMFREVLEKQGPLFVEDIMTMVLCKPKLLPLKSLTLEKLEKMHQAAQNTIRQQEMAEKDQRQITH [P35E],with no effect
13,MLKAAAKRPELSGKNTISKNSDMAEVKSMFREVLPKQGPLFVEDIMTMVLCKPKLLPLKSLTLEKLEKMHQAAQNTIRQQEMAEKDQRQITH [N19K],with no effect
14,MLKAAAKRPELSGKNTISNNSDMAEVKSMFREVLPKQGPLFVEDIMTMVLCKKKLLPLKSLTLEKLEKMHQAAQNTIRQQEMAEKDQRQITH [P53K],with no effect
15,MLKAAAKRPELSGKNTISNNSDMAEVKSMFREVLPKQGPLFVEDIMTMVLCKPKLLPLKSLTLEKLEKMHQAAQNTIRQQEMAEKDQRKITH [Q89K],with no effect
16,MLKAAAKRPELSGKNTISNNSDMAEVKSMFREVLPKQGPLFVEDIMTMVLCKPKLLPLKSLTLEKLEKMHQAAQNTIRQQEMAEKDQRQKTH [I90K],with no effect
17,MLKAAAKRPELSGKNTISNNSDKAEVKSMFREVLPKQGPLFVEDIMTMVLCKPKLLPLKSLTLEKLEKMHQAAQNTIRQQEMAEKDQRQITH [M23K],with no effect
18,MLKAAAKRPELSGKNTISNNSDMAEVKSMFREVLPKQGPLFVEDIMTMVLCKPKLLPKKSLTLEKLEKMHQAAQNTIRQQEMAEKDQRQITH [L58K],with no effect
19,MLKAAAKRPELSGKNTISNNSDMAEVKSMFREVLPKQGPLFVEDIMTMVLCKPKLLPLKSLTLEKLAKMHQAAQNTIRQQEMAEKDQRQITH [E67A],disrupting interaction strength
20,ELKAAAKRPELSGKNTISNNSDMAEVKSMFREVLPKQGPLFVEDIMTMVLCKPKLLPLKSLTLEKLEKMHQAAQNTIRQQEMAEKDQRQITH [M1E],with no effect
21,MLKAAAKRPELSGKNTISNNSDMAEVKSMFREVLPKQGPLFVEDIMTMVLCKPKLLPLKSLTLEKLEKMHQAAQNTIRQQEMAEKDQREITH [Q89E],with no effect
22,MLKAAAKRPELSGKNTISNNSDMAEVKSMFREVLPKQGPLFVEDIMTMVLCKPKLLPLKSLTLEKLEKMHQAAQNTIRQAEMAEKDQRQITH [Q80A],with no effect
23,MLKAAAKRPELSGKNTISNNSDMAEVASMFREVLPKQGPLFVEDIMTMVLCKPKLLPLKSLTLEKLEKMHQAAQNTIRQQEMAEKDQRQITH [K27A],with no effect
24,MLKAAAKRPELSGKNTISNNSDMAEVKSMFEEVLPKQGPLFVEDIMTMVLCKPKLLPLKSLTLEKLEKMHQAAQNTIRQQEMAEKDQRQITH [R31E],with no effect
25,MLKAAAKRPELSGKNTISNNSDMAEVKSMFREVLPKQGPLFVEDIMTMVACKPKLLPLKSLTLEKLEKMHQAAQNTIRQQEMAEKDQRQITH [L50A],with no effect
26,MLKAAAKRPELSGKNTISNNSAMAEVKSMFREVLPKQGPLFVEDIMTMVLCKPKLLPLKSLTLEKLEKMHQAAQNTIRQQEMAEKDQRQITH [D22A],with no effect
